Data: patent publication US20190376046

Tests used:
[1] = target: Glyceraldehyde-3-phosphate dehydrogenase (encoded by GAPDH) (UniProt P04406)
[2] = target: T1, Phosphoglycerate kinase 1 (encoded by PGK1) (UniProt P00558)
T1 sequence: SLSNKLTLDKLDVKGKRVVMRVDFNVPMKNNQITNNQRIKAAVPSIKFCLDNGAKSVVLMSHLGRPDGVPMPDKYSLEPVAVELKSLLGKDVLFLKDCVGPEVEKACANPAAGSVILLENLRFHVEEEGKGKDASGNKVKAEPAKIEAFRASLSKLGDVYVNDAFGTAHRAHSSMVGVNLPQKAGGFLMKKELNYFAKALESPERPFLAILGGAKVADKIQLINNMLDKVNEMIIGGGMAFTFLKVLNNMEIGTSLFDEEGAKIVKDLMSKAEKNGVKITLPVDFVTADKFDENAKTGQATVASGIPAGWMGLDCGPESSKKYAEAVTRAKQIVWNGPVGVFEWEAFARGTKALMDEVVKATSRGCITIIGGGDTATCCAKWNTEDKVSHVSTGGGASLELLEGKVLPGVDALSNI

[3] = target: Alpha-enolase (encoded by ENO1) (UniProt P06733)
[4] = target: T2, Fructose-bisphosphate aldolase A (encoded by ALDOA) (UniProt P04075)
T2 sequence: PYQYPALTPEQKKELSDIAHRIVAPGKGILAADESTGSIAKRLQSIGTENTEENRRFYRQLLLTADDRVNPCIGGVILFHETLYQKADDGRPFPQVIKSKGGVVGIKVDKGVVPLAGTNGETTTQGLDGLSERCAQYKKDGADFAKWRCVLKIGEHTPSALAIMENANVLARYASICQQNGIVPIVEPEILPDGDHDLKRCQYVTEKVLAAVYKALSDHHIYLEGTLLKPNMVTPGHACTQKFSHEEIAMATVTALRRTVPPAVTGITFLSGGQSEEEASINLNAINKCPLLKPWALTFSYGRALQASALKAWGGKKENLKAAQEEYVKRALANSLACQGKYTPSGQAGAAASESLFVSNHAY

Alpha-enolase (encoded by ENO1), sequence (P06733 2-434): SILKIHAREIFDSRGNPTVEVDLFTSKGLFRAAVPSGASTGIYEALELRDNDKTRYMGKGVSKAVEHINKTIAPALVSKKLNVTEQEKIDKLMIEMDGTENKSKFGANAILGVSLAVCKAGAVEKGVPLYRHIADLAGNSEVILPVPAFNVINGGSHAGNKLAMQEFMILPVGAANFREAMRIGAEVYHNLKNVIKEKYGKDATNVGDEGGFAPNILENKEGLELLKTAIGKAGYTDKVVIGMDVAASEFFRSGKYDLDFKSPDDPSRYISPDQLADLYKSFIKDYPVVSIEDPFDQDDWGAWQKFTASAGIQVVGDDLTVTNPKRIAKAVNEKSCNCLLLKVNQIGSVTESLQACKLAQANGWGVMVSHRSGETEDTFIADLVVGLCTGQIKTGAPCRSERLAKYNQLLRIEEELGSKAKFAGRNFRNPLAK
Glyceraldehyde-3-phosphate dehydrogenase (encoded by GAPDH), sequence (P04406 2-335): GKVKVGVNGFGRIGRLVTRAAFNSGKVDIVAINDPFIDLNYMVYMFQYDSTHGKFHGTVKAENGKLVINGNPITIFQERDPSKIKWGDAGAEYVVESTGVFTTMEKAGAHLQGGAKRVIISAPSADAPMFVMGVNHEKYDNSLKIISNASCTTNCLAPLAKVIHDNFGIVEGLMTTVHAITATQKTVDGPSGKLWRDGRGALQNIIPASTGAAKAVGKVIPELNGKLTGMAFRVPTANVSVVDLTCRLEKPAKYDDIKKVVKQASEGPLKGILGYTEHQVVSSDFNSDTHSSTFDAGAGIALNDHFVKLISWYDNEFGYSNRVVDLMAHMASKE

## Sirtuin 2 (SIRT2), human
[1]
  acetylation level (IP with specific antibody, western blot with anti-acetyl-Lys, and the reverse): forced expression of SIRT2 in hESCs prominently deacetylated all four enzymes tested (aldolase, PGK1, enolase, and GAPDH)
  acetylation level after SIRT2 knockdown in hDFs (IP, western blot with anti-acetyl-Lys): Acetylation levels of aldolase, enolase, PGK1 and GAPDH were substantially increased in SIRT2 KD fibroblasts
[2]
  acetylation level (IP with specific antibody, western blot with anti-acetyl-Lys, and the reverse): forced expression of SIRT2 in hESCs prominently deacetylated all four enzymes tested (aldolase, PGK1, enolase, and GAPDH)
  acetylation level after SIRT2 knockdown in hDFs (IP, western blot with anti-acetyl-Lys): Acetylation levels of aldolase, enolase, PGK1 and GAPDH were substantially increased in SIRT2 KD fibroblasts
[3]
  acetylation level (IP with specific antibody, western blot with anti-acetyl-Lys, and the reverse): forced expression of SIRT2 in hESCs prominently deacetylated all four enzymes tested (aldolase, PGK1, enolase, and GAPDH)
  acetylation level after SIRT2 knockdown in hDFs (IP, western blot with anti-acetyl-Lys): Acetylation levels of aldolase, enolase, PGK1 and GAPDH were substantially increased in SIRT2 KD fibroblasts
[4]
  acetylation level (IP with specific antibody, western blot with anti-acetyl-Lys, and the reverse): forced expression of SIRT2 in hESCs prominently deacetylated all four enzymes tested (aldolase, PGK1, enolase, and GAPDH)
  acetylation level after SIRT2 knockdown in hDFs (IP, western blot with anti-acetyl-Lys): Acetylation levels of aldolase, enolase, PGK1 and GAPDH were substantially increased in SIRT2 KD fibroblasts
